Assay results as given in patent publication US20110239311.

Columns and labels:
[1] = system: GST-NR2F6 fusion protein, wild-type, full-length (purified recombinant)
[2] = system: GST-NR2F6 fusion protein, S89A mutant, full-length
[3] = system: GST-NR2F6 fusion protein, S83A mutant, full-length
GST-NR2F6 fusion protein, S83A mutant, full-length, sequence (chain, as listed by the source S83A): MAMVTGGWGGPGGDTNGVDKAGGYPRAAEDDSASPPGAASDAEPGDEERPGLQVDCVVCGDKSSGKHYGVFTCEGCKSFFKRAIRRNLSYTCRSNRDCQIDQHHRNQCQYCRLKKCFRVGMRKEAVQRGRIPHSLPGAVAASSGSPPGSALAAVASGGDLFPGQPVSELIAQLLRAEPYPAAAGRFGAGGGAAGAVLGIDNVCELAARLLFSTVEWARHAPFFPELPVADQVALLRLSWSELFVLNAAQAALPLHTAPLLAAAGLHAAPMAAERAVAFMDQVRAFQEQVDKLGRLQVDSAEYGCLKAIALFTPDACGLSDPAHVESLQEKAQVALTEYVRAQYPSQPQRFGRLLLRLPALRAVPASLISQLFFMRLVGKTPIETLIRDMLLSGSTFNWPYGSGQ

GST-NR2F6 fusion protein, wild-type, full-length (purified recombinant), sequence (chain, as listed by the source): as the sequence (chain, as listed by the source S83A) above, with A83S counted along it
GST-NR2F6 fusion protein, S89A mutant, full-length, sequence (chain, as listed by the source S89A): as the sequence (chain, as listed by the source S83A) above, with A83S, S89A counted along it
recombinant PKCtheta, sequence (Q04759 whole entry): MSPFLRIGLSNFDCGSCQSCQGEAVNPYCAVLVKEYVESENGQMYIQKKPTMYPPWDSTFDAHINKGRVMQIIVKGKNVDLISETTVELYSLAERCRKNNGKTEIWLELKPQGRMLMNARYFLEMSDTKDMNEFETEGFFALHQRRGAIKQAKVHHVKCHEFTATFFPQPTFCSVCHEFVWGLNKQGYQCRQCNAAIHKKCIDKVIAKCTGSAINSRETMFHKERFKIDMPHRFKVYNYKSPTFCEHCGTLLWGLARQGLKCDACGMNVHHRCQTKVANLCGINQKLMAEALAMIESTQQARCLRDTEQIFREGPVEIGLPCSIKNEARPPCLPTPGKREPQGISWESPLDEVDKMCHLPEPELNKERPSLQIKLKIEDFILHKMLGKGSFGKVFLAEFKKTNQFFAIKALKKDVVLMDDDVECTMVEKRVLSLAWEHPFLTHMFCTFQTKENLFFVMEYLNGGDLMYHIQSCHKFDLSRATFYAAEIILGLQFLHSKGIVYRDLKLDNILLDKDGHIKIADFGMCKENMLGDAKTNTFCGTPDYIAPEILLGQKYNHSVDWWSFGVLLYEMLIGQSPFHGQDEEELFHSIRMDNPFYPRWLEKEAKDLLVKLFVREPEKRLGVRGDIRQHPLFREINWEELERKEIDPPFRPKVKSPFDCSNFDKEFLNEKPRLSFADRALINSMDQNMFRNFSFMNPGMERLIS

Row | Substance | in vitro protein kinase assay (32P incorporation into GST-NR2F6) [1] | in vitro protein kinase assay (32P incorporation into GST-NR2F6) [2] | in vitro protein kinase assay (32P incorporation into GST-NR2F6) [3]
1 | Protein kinase A (PKA) | (but not PKCzeta or PKA) were able to phosphorylate recombinant NR2F6 in vitro | – | –
2 | recombinant PKCalpha | PKCalpha, delta and theta (but not PKCzeta or PKA) were able to phosphorylate recombinant NR2F6 in vitro | This phosphorylation was lost after the predicted phosphorylation site at Ser-83 (but not at Ser-89) was mutated in the full-length NR2F6 protein | This phosphorylation was lost after the predicted phosphorylation site at Ser-83 (but not at Ser-89) was mutated in the full-length NR2F6 protein
3 | recombinant PKCdelta | PKCalpha, delta and theta (but not PKCzeta or PKA) were able to phosphorylate recombinant NR2F6 in vitro | This phosphorylation was lost after the predicted phosphorylation site at Ser-83 (but not at Ser-89) was mutated in the full-length NR2F6 protein | This phosphorylation was lost after the predicted phosphorylation site at Ser-83 (but not at Ser-89) was mutated in the full-length NR2F6 protein
4 | recombinant PKCtheta | PKCalpha, delta and theta (but not PKCzeta or PKA) were able to phosphorylate recombinant NR2F6 in vitro | This phosphorylation was lost after the predicted phosphorylation site at Ser-83 (but not at Ser-89) was mutated in the full-length NR2F6 protein | This phosphorylation was lost after the predicted phosphorylation site at Ser-83 (but not at Ser-89) was mutated in the full-length NR2F6 protein
